Laboratory results from paper PMC8874921, “Evolved DNA Duplex Readers for Strand-Asymmetrically Modified 5-Hydroxymethylcytosine/5-Methylcytosine CpG Dyads”.

B1: mC/mC oligo-dA/dT (EMSA) (dsDNA)
DNA 1: AAAAAAAAAAACGAAAAAAAAAAA
DNA 2: TTTTTTTTTTTCGTTTTTTTTTTT
modifications: 5mC at C12 of strand 1 (o2967); 5mC at C12 of strand 2 (o2909)
B2: hmC/hmC oligo-dA/dT (EMSA) (dsDNA)
DNA 1: AAAAAAAAAAACGAAAAAAAAAAA
DNA 2: TTTTTTTTTTTCGTTTTTTTTTTT
modifications: 5hmC at C12 of strand 1 (o3115); 5hmC at C12 of strand 2 (o3112)
B3: hmC/C oligo-dA/dT (EMSA) (dsDNA)
DNA 1: AAAAAAAAAAACGAAAAAAAAAAA
DNA 2: TTTTTTTTTTTCGTTTTTTTTTTT
modifications: 5hmC at C12 of strand 1 (o3115); strand 2 unmodified (o2904)
B4: hmC/mC oligo-dA/dT (EMSA) (dsDNA)
DNA 1: AAAAAAAAAAACGAAAAAAAAAAA
DNA 2: TTTTTTTTTTTCGTTTTTTTTTTT
modifications: 5hmC at C12 of strand 1 (o3115); 5mC at C12 of strand 2 (o2909)
B5: C/mC oligo-dA/dT (EMSA) (dsDNA)
DNA 1: AAAAAAAAAAACGAAAAAAAAAAA
DNA 2: TTTTTTTTTTTCGTTTTTTTTTTT
modifications: 5mC at C12 of strand 1 (o2967); strand 2 unmodified (o2904)

Biological target: wt MeCP2 MBD (Homo sapiens, UniProt P51608 90-181)
Experiment: EMSA; EMSA; unlabeled oligo-dA/dT duplex (o2968/o2969) listed as binding trap; buffer, salt, pH and temperature not shown in the material
Conditions: protein: recombinant, tags: N-terminal FLAG-MBP-FactorXa-TEV, C-terminal 7xHis, label: 6-FAM 5' strand 1

wt MeCP2 MBD, sequence (P51608 90-181): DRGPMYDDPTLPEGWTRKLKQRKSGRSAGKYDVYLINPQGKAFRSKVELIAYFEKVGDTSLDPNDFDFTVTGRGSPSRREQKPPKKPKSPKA

Binder	Kd (blunt) [nM]	Kd [nM]
B1	3.9 ± 0.636	–
B2	–	198 ± 39.1
B3	211 ± 19.5	–
B4	47.4 ± 12.4	–
B5	43.8 ± 3.64	–
